Measurements taken from patent US5130298A, “Stabilized compositions containing epidermal growth factor” (Ethicon, Inc., priority 1989, dated 1992).

Assays:
[1] = EGF stability with zinc ion at pH 5.5 to 6.5, aged 28 days at 46° C., reverse phase HPLC of Peaks C, D, X, Y; assay type: physicochemical
Protocol: Recombinantly produced human EGF (Chiron Corporation, Emeryville, Calif.) was used in the following experiments. EGF stability with zinc ion was tested at pH 5.5 to 6.5. Lyophilized EGF was reconstituted in 50 mM sodium acetate at PH 5.5. A solution of zinc chloride was then added to this EGF solution. Alternatively, a solution of zinc acetate or crystals of a zinc salt could have been added.
The samples were permitted to age over a 28 day period and then HPLC analysis was used to study the structural changes involving the formation of new species (e.g., Peaks C, X and Y) of EGF under various storage conditions and in the presence of new formulations. Reverse phase HPLC can be used for quantitative and qualitative analysis of EGF.
(§1) The zinc-EGF complex must be dissociated before HPLC analysis because the complex cannot be run on the HPLC column as is. Therefore, prior to HPLC, the pH of the samples to be analyzed was adjusted to 3.0. Alternatively, EDTA (a chelating agent) may be used to reverse crystallization. Reverse phase HPLC was conducted using a Vydac C-4 column (4.6 mm×25 cm, 5μm). The flow rate was 0.8 ml/min at 26° C. using a linear gradient of 26% to 32% acetonitrile (0.1% TFA) over 26 minutes.

[2] = Stability of precipitated EGF at pH 4.6, 7 days at 46° C., with or without zinc ion, reverse phase HPLC; assay type: physicochemical; details: pH 4.6, precipitated, sodium acetate buffer
Protocol: as §1
This experiment was designed to answer the stability of the zinc-EGF complex results from the exclusion of water by the large and insoluble complex or alternatively from the direct interaction of zinc ion with specific amino acids in the protein. A zinc-EGF solution and control were prepared as in Example 1 and the samples were adjusted to a PH of 4.6. At this pH EGF naturally precipitates out of solution since it is at its isoelectric point. Two sets of the precipitated EGF at pH 4.6 in sodium acetate buffer were incubated for 7 days at 46° C.

With Zn++: complex ion wherein zinc is coordinately bound to recombinant human EGF; precipitates at pH 4.0-7.0
% Peak C ([1]; pH 5.5, 28 days at 46° C.): 3%
% Peak D (native EGF) ([1]; pH 5.5, 28 days at 46° C.): 82%
% Peak X ([1]; pH 5.5, 28 days at 46° C.): 0%
% Peak C ([1]; pH 6.0, 28 days at 46° C.): 3%
% Peak D (native EGF) ([1]; pH 6.0, 28 days at 46° C.): 75%
% Peak X ([1]; pH 6.0, 28 days at 46° C.): 4%
% Peak C ([1]; pH 6.5, 28 days at 46° C.): 1%
% Peak X ([1]; pH 6.5, 28 days at 46° C.): 0%
% Peak C [2]: 2%
% Peak X [2]: 7%
% Peak Y [2]: 0%

Without Zn++: Recombinantly produced human epidermal growth factor (Chiron Corporation), 53 amino acid polypeptide, without zinc; control
% Peak C ([1]; pH 5.5, 28 days at 46° C.): 3%
% Peak D (native EGF) ([1]; pH 5.5, 28 days at 46° C.): 30%
% Peak Y ([1]; pH 5.5, 28 days at 46° C.): 25%
% Peak C ([1]; pH 6.0, 28 days at 46° C.): 6%
% Peak D (native EGF) ([1]; pH 6.0, 28 days at 46° C.): 51%
% Peak Y ([1]; pH 6.0, 28 days at 46° C.): 21%
% Peak C ([1]; pH 6.5, 28 days at 46° C.): 6%
% Peak D (native EGF) ([1]; pH 6.5, 28 days at 46° C.): 52%
% Peak Y ([1]; pH 6.5, 28 days at 46° C.): 21%
% Peak C [2]: 0%
% Peak D (native EGF) [2]: 47%
% Peak X [2]: 26%
% Peak Y [2]: 27%
